Reference: patent US20210145976A1 (ARO BIOTHERAPEUTICS, published 2021)
Positions count from the first letter of the chain named.

B1: SEQ ID NO 193 (designed binder)
chain: MLPAPKNLVVSRVTEDSARLSWTAPDAAFDSFTIWYAEAVGNGEAIVLTVPGSERSYDLTGLKPGTEYWVDIWGVKGGEFSSPLSAIFTT
notes: FN3 domain
B2: SEQ ID NO 268 (designed binder)
chain: MLPAPKNLVVSRVTEDSARLSWTAPDAAFDSFTIVYGEAGAFGEAIVLTVPGSERSYDLTGLKPGTEYDVLIEGVKGGNLSWPLSAIFTT
notes: FN3 domain
B3: SEQ ID NO 272 (designed binder)
chain: MLPAPKNLVVSRVTEDSARLSWTAPDAAFDSFGIPYAESTPTGEAIVLTVPGSERSYDLTGLKPGTEYSVLIHGVKGGHLSDPLSAIFTT
notes: FN3 domain
B4: SEQ ID NO 195 (designed binder)
chain: MLPAPKNLVVSRVTEDSARLSWTAPDAAFDSFPIEYDEIPFWGEAIVLTVPGSERSYDLTGLKPGTEYRVWIHGVKGGNSSWPLSAIFTT
notes: FN3 domain
B5: SEQ ID NO 276 (designed binder)
chain: MLPAPKNLVVSRVTEDSARLSWTAPDAAFDSFRIDYLELTSLGEAIVLTVPGSERSYDLTGLKPGTEYPVPILGVKGGLSSWPLSAIFTT
notes: FN3 domain
B6: SEQ ID NO 243 (designed binder)
chain: MLPAPKNLVVSRVTEDSARLSWTAPDAAFDSFAIPYYEWVNHGEAIVLTVPGSERSYDLTGLKPGTEYPVGIDGVKGGGPSWPLSAIFTT
notes: FN3 domain
B7: SEQ ID NO 240 (designed binder)
chain: B5 chain with D35K, L39W, T40W, S41L, L42G, P69W, P71D, L73Q, L79V, S80L
notes: FN3 domain
B8: SEQ ID NO 207 (designed binder)
chain: MLPAPKNLVVSRVTEDSARLSWTAPDAAFDSFFIGYLEPQPPGEAIVLTVPGSERSYDLTGLKPGTEYNVTIQGVKGGTPSEPLSAISTT
notes: FN3 domain
B9: SEQ ID NO 228 (designed binder)
chain: MLPAPKNLVVSRVTEDSARLSWTAPDAAFDSFEIYYVEWSEAGEAIVLTVPGSERSYDLTGLKPGTEYRVEIRGVKGGSWSSPLSAIFTT
notes: FN3 domain
B10: SEQ ID NO 236 (designed binder)
chain: MLPAPKNLVVSRVTEDSARLSWTAPDAAFDSFWIEYYEELGSGEAIVLTVPGSERSYDLTGLKPGTEYRVYIYGVKGGYPSSPLSAIFTT
notes: FN3 domain
B11: SEQ ID NO 255 (designed binder)
chain: B10 chain with W33D, E39L, L40I, S42R, R69W, Y71G, Y79W, P80L, S82R
notes: FN3 domain
B12: SEQ ID NO 245 (designed binder)
chain: MLPAPKNLVVSRITEDSARLSWTAPDAAFDSFGIAYNEGDHYGEAIVLTVPGSERSYDLTGLKPGTEYSVWIEGVKGGNLSYPLSAIFTT
notes: FN3 domain
B13: SEQ ID NO 246 (designed binder)
chain: B12 chain with I13V, G33T, G39Q, D40N, S69G, N79T, Y82W
notes: FN3 domain
B14: SEQ ID NO 263 (designed binder)
chain: B8 chain with T79F, E82M
notes: FN3 domain
B15: SEQ ID NO 256 (designed binder)
chain: MLPAPKNLVVSRVTEDSARLSWTAPDAAFDSFHIVYHEPRPSGEAIVLTVPGSERSYDLTGLKPGTEYEVGIVGVKGGDLSVPLSAIFTT
notes: FN3 domain
B16: SEQ ID NO 215 (designed binder)
chain: B3 chain with G33L, S39T, T40S, H79Y, L80P, D82S
notes: FN3 domain
B17: SEQ ID NO 258 (designed binder)
chain: B3 chain with G33F, S39P, T40S, S69D, L71W, H73E, H79V, D82W
notes: FN3 domain
B18: SEQ ID NO 279 (designed binder)
chain: B10 chain with W33S, E39S, L40V, S42L, R69D, Y71S, P80L, S82R
notes: FN3 domain
B19: SEQ ID NO 254 (designed binder)
chain: B3 chain with G33F, S39P, T40S, F88S
notes: FN3 domain
B20: SEQ ID NO 216 (designed binder)
chain: B3 chain with G33P, P35A, S39P, T42S, H79G, D82L
notes: FN3 domain
B21: SEQ ID NO 210 (designed binder)
chain: B2 chain with T33S, A39R, G40F, A41V, F42N, D69H, L71Y, E73D, N79D
notes: FN3 domain
B22: SEQ ID NO 265 (designed binder)
chain: MLPAPKNLVVSRVTEDSARLSWTAPDAAFDSFWIYYIETSHQGEAIVLTVPGSERSYDLTGLKPGTEYFVLIKGVKGGYDSVPLSAIFTT
notes: FN3 domain
B23: SEQ ID NO 211 (designed binder)
chain: MLPAPKNLVVSRVTEDSARLSWTAPDAAFDSFWINYYEAQPDGEAIVLTVPGSERSYDLTGLKPGTEYDVEIAGVKGGTASLPLSAIFTT
notes: FN3 domain
B24: SEQ ID NO 200 (designed binder)
chain: B10 chain with W33Y, E39W, L40M, G41H, S42T, R69S
notes: FN3 domain
B25: SEQ ID NO 283 (designed binder)
chain: B3 chain with G33P, P35A, S39P, T40R, T42D, H79L, D82S
notes: FN3 domain
B26: SEQ ID NO 275 (designed binder)
chain: B3 chain with G33L, P35A, S39V, P41L, T42H, H79R, L80N
notes: FN3 domain
B27: SEQ ID NO 282 (designed binder)
chain: B15 chain with H33A, S42D, G71V, V73L, D79V, L80H, V82Y
notes: FN3 domain
B28: SEQ ID NO 202 (designed binder)
chain: B10 chain with W33Y, E35D, Y37L, E39L, L40T, G41Y, R69Y
notes: FN3 domain
B29: SEQ ID NO 251 (designed binder)
chain: B8 chain with T79F, E82M, S88V
notes: FN3 domain
B30: SEQ ID NO 271 (designed binder)
chain: B3 chain with G33Y, S39T, T40R, P41D, T42D, H79D, D82S
notes: FN3 domain
B31: SEQ ID NO 264 (designed binder)
chain: B5 chain with D35K, L37Q, L39W, T40W, S41V, L42E, P69V, P71Q, L73A, W82Y
notes: FN3 domain
B32: SEQ ID NO 223 (designed binder)
chain: B1 chain with V40L, N42D, W69F, W73P, E79T, F80R, F88S
notes: FN3 domain
B33: SEQ ID NO 198 (designed binder)
chain: B12 chain with I13V, G33L, G39D, D40R, H41K, Y42F, S69D, N79S, Y82F
notes: FN3 domain
B34: SEQ ID NO 250 (designed binder)
chain: B8 chain with Q40Y, N69A, T71E, Q73A, T79L, P80L, E82S
notes: FN3 domain
B35: SEQ ID NO 285 (designed binder)
chain: B3 chain with G33L, S39T, T40S, T42S, H79D, L80Y, D82S
notes: FN3 domain
B36: SEQ ID NO 219 (designed binder)
chain: B5 chain with R33H, S41Y, L42A, P69Y, P71T, L73Y, L79Y, S80P, W82S
notes: FN3 domain
B37: SEQ ID NO 262 (designed binder)
chain: B10 chain with W33A, Y37F, E39Y, L40T, S42E, R69Y, Y71G, P80L, S82R
notes: FN3 domain
B38: SEQ ID NO 205 (designed binder)
chain: B4 chain with P33D, E35D, I39P, P40A, F41W, W42N, W71F, H73Y, S80T
notes: FN3 domain
B39: SEQ ID NO 267 (designed binder)
chain: B2 chain with T33P, G37S, A39I, G40H, A41V, F42I, L71W, N79H, W82E
notes: FN3 domain

Target: T1, recombinant biotinylated CD71 extracellular domain (Sino Biologics) with an N-terminal 6His tag (human, UniProt P02786 89-760, biotinylated (sites not given))
T1 construct: extracellular domain; also called hCD71; huCD71
Assay: screening ELISA

T1 sequence (P02786 other isoform, or with tags, fused parts or gaps): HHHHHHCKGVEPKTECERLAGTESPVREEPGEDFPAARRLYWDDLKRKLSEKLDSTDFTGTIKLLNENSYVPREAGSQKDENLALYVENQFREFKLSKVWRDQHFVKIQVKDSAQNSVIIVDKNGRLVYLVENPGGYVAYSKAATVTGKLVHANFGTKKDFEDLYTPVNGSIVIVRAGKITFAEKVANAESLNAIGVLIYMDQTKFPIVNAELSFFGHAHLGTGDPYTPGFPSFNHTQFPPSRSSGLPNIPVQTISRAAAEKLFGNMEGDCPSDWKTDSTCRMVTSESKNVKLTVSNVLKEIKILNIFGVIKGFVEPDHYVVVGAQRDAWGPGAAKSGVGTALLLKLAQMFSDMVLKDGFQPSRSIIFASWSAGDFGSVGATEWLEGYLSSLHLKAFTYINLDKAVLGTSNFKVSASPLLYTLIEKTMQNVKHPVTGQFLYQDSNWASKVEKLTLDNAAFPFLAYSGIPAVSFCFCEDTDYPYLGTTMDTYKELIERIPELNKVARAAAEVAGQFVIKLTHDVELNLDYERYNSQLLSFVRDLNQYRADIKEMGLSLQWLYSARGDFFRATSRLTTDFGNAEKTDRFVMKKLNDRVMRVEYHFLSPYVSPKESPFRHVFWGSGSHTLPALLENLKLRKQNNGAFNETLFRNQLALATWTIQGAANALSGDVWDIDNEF

Binder | hCD71
B1 | 3.87e+06
B2 | 1.6e+06
B3 | 1.78e+06
B4 | 2.53e+06
B5 | 720000
B6 | 2.4e+06
B7 | 3.03e+06
B8 | 1.6e+06
B9 | 2.54e+06
B10 | 3.44e+06
B11 | 1.84e+06
B12 | 2.62e+06
B13 | 1.57e+06
B14 | 1.88e+06
B15 | 1.98e+06
B16 | 2.13e+06
B17 | 1.04e+06
B18 | 4.09e+06
B19 | 3.24e+06
B20 | 2.19e+06

Binder | hCD71
B21 | 1.16e+06
B22 | 3.61e+06
B23 | 1e+06
B24 | 3.63e+06
B25 | 2.95e+06
B26 | 2.25e+06
B27 | 3.85e+06
B28 | 4.5e+06
B29 | 2.74e+06
B30 | 2.11e+06
B31 | 2.98e+06
B32 | 1.67e+06
B33 | 3.44e+06
B34 | 1.09e+06
B35 | 2.44e+06
B36 | 3.31e+06
B37 | 4.38e+06
B38 | 434000
B39 | 1.97e+06

Target: T1, recombinant biotinylated CD71 …
Assay: screening ELISA, ratio

Binder | hCD71:HSA
B1 | 1550
B2 | 626
B3 | 199
B4 | 28
B5 | 58
B6 | 237
B7 | 1480
B8 | 62
B9 | 1060
B10 | 2300
B11 | 403
B12 | 903
B13 | 1120
B14 | 92
B15 | 900
B16 | 1210
B17 | 98
B18 | 1300
B19 | 36
B20 | 101

Binder | hCD71:HSA
B21 | 514
B22 | 913
B23 | 334
B24 | 1730
B25 | 472
B26 | 591
B27 | 206
B28 | 1610
B29 | 284
B30 | 693
B31 | 1170
B32 | 32
B33 | 1130
B34 | 58
B35 | 1110
B36 | 1270
B37 | 1860
B38 | 130
B39 | 166
